Laboratory results as given in patent US20170081400A1 (CEPHALON, published 2017).

T1: human TL1A extracellular domain with N-terminal HIS and FLAG tag (human, UniProt O95150 72-251)
T1 construct: the whole entry is named; also called TNFSF15
T1 sequence: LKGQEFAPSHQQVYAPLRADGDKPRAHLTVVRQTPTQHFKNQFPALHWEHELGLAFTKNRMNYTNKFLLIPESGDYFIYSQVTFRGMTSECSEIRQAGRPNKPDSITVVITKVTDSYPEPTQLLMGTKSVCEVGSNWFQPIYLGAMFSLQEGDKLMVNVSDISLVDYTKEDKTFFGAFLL

B1: 320-549 (antibody, human IgG1, name in Kabat numbering, V domains shown)
VH: QVQLVQSGAEVKKPGASVKVSCKASGYTFTSYDINWVRQAPGQGLEWMGWLNPNSGNSGYAQKFQGRVTMTADRSTSTAYMELSSLRSEDTAVYYCAREVPETAAFEYWGQGTLVTVSS
VL: QSVLTQPPSVSGAPGQRVTISCTSSSSDIGAGLGVHWYQQLPGTAPKLLIEGYYNRPSGVPDRFSGSKSGTSASLTITGLLPEDEGDYYCQSYDGTLSALFGGGTKLTVLG
notes: full-length human IgG1, lambda
B2: 320-569 (antibody, human IgG1, name in Kabat numbering, V domains shown)
VH: QVQLVQSGAEVKKPGASVKVSCKASGYTFTSYDINWVRQAPGQGLEWMGWLNPNSGNTGDAQKFQGRVTMTADRSTSTAYMELSSLRSEDTAVYYCAREVPETAAFEYWGQGTLVTVSS
VL: QSVLTQPPSVSGAPGQRVTISCTSSSSDIGAGLGVHWYQQLPGTAPKLLIEGYYNRPSGVPDRFSGSKSGTSASLTITGLLPEDEGDYYCQSYDGTLSALFGGGTKLTVLG
notes: as for B1
B3: 320-557 (antibody, human IgG1, name in Kabat numbering, V domains shown)
VH: QVQLVQSGAEVKKPGASVKVSCKASGYTFTSYDINWVRQAPGQGLEWMGWLNPNSGNTAYAQKFQGRVTMTADRSTSTAYMELSSLRSEDTAVYYCAREVPETAAFEYWGQGTLVTVSS
VL: QSVLTQPPSVSGAPGQRVTISCTSSSSDIGAGLGVHWYQQLPGTAPKLLIEGYYNRPSGVPDRFSGSKSGTSASLTITGLLPEDEGDYYCQSYDGTLSALFGGGTKLTVLG
notes: as for B1
B4: 320-566 (antibody, human IgG1, name in Kabat numbering, V domains shown)
VH: QVQLVQSGAEVKKPGASVKVSCKASGYTFTSYDINWVRQAPGQGLEWMGWLNPNSGNTGAAQKFQGRVTMTADRSTSTAYMELSSLRSEDTAVYYCAREVPETAAFEYWGQGTLVTVSS
VL: QSVLTQPPSVSGAPGQRVTISCTSSSSDIGAGLGVHWYQQLPGTAPKLLIEGYYNRPSGVPDRFSGSKSGTSASLTITGLLPEDEGDYYCQSYDGTLSALFGGGTKLTVLG
notes: as for B1
B5: 320-564 (antibody, human IgG1, name in Kabat numbering, V domains shown)
VH: QVQLVQSGAEVKKPGASVKVSCKASGYTFTSYDINWVRQAPGQGLEWMGWLNPNSGNTWYAQKFQGRVTMTADRSTSTAYMELSSLRSEDTAVYYCAREVPETAAFEYWGQGTLVTVSS
VL: QSVLTQPPSVSGAPGQRVTISCTSSSSDIGAGLGVHWYQQLPGTAPKLLIEGYYNRPSGVPDRFSGSKSGTSASLTITGLLPEDEGDYYCQSYDGTLSALFGGGTKLTVLG
notes: as for B1
B6: 320-553 (antibody, human IgG1, name in Kabat numbering, V domains shown)
VH: QVQLVQSGAEVKKPGASVKVSCKASGYTFTSYDINWVRQAPGQGLEWMGWLNPNSGNKGYAQKFQGRVTMTADRSTSTAYMELSSLRSEDTAVYYCAREVPETAAFEYWGQGTLVTVSS
VL: QSVLTQPPSVSGAPGQRVTISCTSSSSDIGAGLGVHWYQQLPGTAPKLLIEGYYNRPSGVPDRFSGSKSGTSASLTITGLLPEDEGDYYCQSYDGTLSALFGGGTKLTVLG
notes: as for B1
B7: 320-555 (antibody, human IgG1, name in Kabat numbering, V domains shown)
VH: QVQLVQSGAEVKKPGASVKVSCKASGYTFTSYDINWVRQAPGQGLEWMGWLNPNSGNWGYAQKFQGRVTMTADRSTSTAYMELSSLRSEDTAVYYCAREVPETAAFEYWGQGTLVTVSS
VL: QSVLTQPPSVSGAPGQRVTISCTSSSSDIGAGLGVHWYQQLPGTAPKLLIEGYYNRPSGVPDRFSGSKSGTSASLTITGLLPEDEGDYYCQSYDGTLSALFGGGTKLTVLG
notes: as for B1
B8: 320-554 (antibody, human IgG1, name in Kabat numbering, V domains shown)
VH: QVQLVQSGAEVKKPGASVKVSCKASGYTFTSYDINWVRQAPGQGLEWMGWLNPNSGNLGYAQKFQGRVTMTADRSTSTAYMELSSLRSEDTAVYYCAREVPETAAFEYWGQGTLVTVSS
VL: QSVLTQPPSVSGAPGQRVTISCTSSSSDIGAGLGVHWYQQLPGTAPKLLIEGYYNRPSGVPDRFSGSKSGTSASLTITGLLPEDEGDYYCQSYDGTLSALFGGGTKLTVLG
notes: as for B1
B9: 320-561 (antibody, human IgG1, name in Kabat numbering, V domains shown)
VH: QVQLVQSGAEVKKPGASVKVSCKASGYTFTSYDINWVRQAPGQGLEWMGWLNPNSGNTHYAQKFQGRVTMTADRSTSTAYMELSSLRSEDTAVYYCAREVPETAAFEYWGQGTLVTVSS
VL: QSVLTQPPSVSGAPGQRVTISCTSSSSDIGAGLGVHWYQQLPGTAPKLLIEGYYNRPSGVPDRFSGSKSGTSASLTITGLLPEDEGDYYCQSYDGTLSALFGGGTKLTVLG
notes: as for B1
B10: 320-567 (antibody, human IgG1, name in Kabat numbering, V domains shown)
VH: QVQLVQSGAEVKKPGASVKVSCKASGYTFTSYDINWVRQAPGQGLEWMGWLNPNSGNTGSAQKFQGRVTMTADRSTSTAYMELSSLRSEDTAVYYCAREVPETAAFEYWGQGTLVTVSS
VL: QSVLTQPPSVSGAPGQRVTISCTSSSSDIGAGLGVHWYQQLPGTAPKLLIEGYYNRPSGVPDRFSGSKSGTSASLTITGLLPEDEGDYYCQSYDGTLSALFGGGTKLTVLG
notes: as for B1
B11: 320-556 (antibody, human IgG1, name in Kabat numbering, V domains shown)
VH: QVQLVQSGAEVKKPGASVKVSCKASGYTFTSYDINWVRQAPGQGLEWMGWLNPNSGNYGYAQKFQGRVTMTADRSTSTAYMELSSLRSEDTAVYYCAREVPETAAFEYWGQGTLVTVSS
VL: QSVLTQPPSVSGAPGQRVTISCTSSSSDIGAGLGVHWYQQLPGTAPKLLIEGYYNRPSGVPDRFSGSKSGTSASLTITGLLPEDEGDYYCQSYDGTLSALFGGGTKLTVLG
notes: as for B1
B12: 320-550 (antibody, human IgG1, name in Kabat numbering, V domains shown)
VH: QVQLVQSGAEVKKPGASVKVSCKASGYTFTSYDINWVRQAPGQGLEWMGWLNPNSGNQGYAQKFQGRVTMTADRSTSTAYMELSSLRSEDTAVYYCAREVPETAAFEYWGQGTLVTVSS
VL: QSVLTQPPSVSGAPGQRVTISCTSSSSDIGAGLGVHWYQQLPGTAPKLLIEGYYNRPSGVPDRFSGSKSGTSASLTITGLLPEDEGDYYCQSYDGTLSALFGGGTKLTVLG
notes: as for B1
B13: 320-565 (antibody, human IgG1, name in Kabat numbering, V domains shown)
VH: QVQLVQSGAEVKKPGASVKVSCKASGYTFTSYDINWVRQAPGQGLEWMGWLNPNSGNTYYAQKFQGRVTMTADRSTSTAYMELSSLRSEDTAVYYCAREVPETAAFEYWGQGTLVTVSS
VL: QSVLTQPPSVSGAPGQRVTISCTSSSSDIGAGLGVHWYQQLPGTAPKLLIEGYYNRPSGVPDRFSGSKSGTSASLTITGLLPEDEGDYYCQSYDGTLSALFGGGTKLTVLG
notes: as for B1
B14: 320-559 (antibody, human IgG1, name in Kabat numbering, V domains shown)
VH: QVQLVQSGAEVKKPGASVKVSCKASGYTFTSYDINWVRQAPGQGLEWMGWLNPNSGNTQYAQKFQGRVTMTADRSTSTAYMELSSLRSEDTAVYYCAREVPETAAFEYWGQGTLVTVSS
VL: QSVLTQPPSVSGAPGQRVTISCTSSSSDIGAGLGVHWYQQLPGTAPKLLIEGYYNRPSGVPDRFSGSKSGTSASLTITGLLPEDEGDYYCQSYDGTLSALFGGGTKLTVLG
notes: as for B1
B15: 320-552 (antibody, human IgG1, name in Kabat numbering, V domains shown)
VH: QVQLVQSGAEVKKPGASVKVSCKASGYTFTSYDINWVRQAPGQGLEWMGWLNPNSGNHGYAQKFQGRVTMTADRSTSTAYMELSSLRSEDTAVYYCAREVPETAAFEYWGQGTLVTVSS
VL: QSVLTQPPSVSGAPGQRVTISCTSSSSDIGAGLGVHWYQQLPGTAPKLLIEGYYNRPSGVPDRFSGSKSGTSASLTITGLLPEDEGDYYCQSYDGTLSALFGGGTKLTVLG
notes: as for B1
B16: 320-568 (antibody, human IgG1, name in Kabat numbering, V domains shown)
VH: QVQLVQSGAEVKKPGASVKVSCKASGYTFTSYDINWVRQAPGQGLEWMGWLNPNSGNTGQAQKFQGRVTMTADRSTSTAYMELSSLRSEDTAVYYCAREVPETAAFEYWGQGTLVTVSS
VL: QSVLTQPPSVSGAPGQRVTISCTSSSSDIGAGLGVHWYQQLPGTAPKLLIEGYYNRPSGVPDRFSGSKSGTSASLTITGLLPEDEGDYYCQSYDGTLSALFGGGTKLTVLG
notes: as for B1
B17: 320-560 (antibody, human IgG1, name in Kabat numbering, V domains shown)
VH: QVQLVQSGAEVKKPGASVKVSCKASGYTFTSYDINWVRQAPGQGLEWMGWLNPNSGNTDYAQKFQGRVTMTADRSTSTAYMELSSLRSEDTAVYYCAREVPETAAFEYWGQGTLVTVSS
VL: QSVLTQPPSVSGAPGQRVTISCTSSSSDIGAGLGVHWYQQLPGTAPKLLIEGYYNRPSGVPDRFSGSKSGTSASLTITGLLPEDEGDYYCQSYDGTLSALFGGGTKLTVLG
notes: as for B1
B18: 320-551 (antibody, human IgG1, name in Kabat numbering, V domains shown)
VH: QVQLVQSGAEVKKPGASVKVSCKASGYTFTSYDINWVRQAPGQGLEWMGWLNPNSGNDGYAQKFQGRVTMTADRSTSTAYMELSSLRSEDTAVYYCAREVPETAAFEYWGQGTLVTVSS
VL: QSVLTQPPSVSGAPGQRVTISCTSSSSDIGAGLGVHWYQQLPGTAPKLLIEGYYNRPSGVPDRFSGSKSGTSASLTITGLLPEDEGDYYCQSYDGTLSALFGGGTKLTVLG
notes: as for B1

Key:
[1] = biological target: T1, human TL1A extracellular domain with …; experiment: SPR Run 7, antibody on Protein A, TL1A 5 ug/mL, timepoint 220
How it was run: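 Surface plasmon resonance on a Biacore T200 was used, with variants spread over several runs. Antibodies were captured via immobilized Protein A, and their capture level was recorded. Sensorgrams were double-referenced, and the antigen response was read near the end of dissociation.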

[2] = biological target: T1, human TL1A extracellular domain with …; experiment: SPR Run 7, antibody on Protein A, TL1A 5 ug/mL, timepoint 44
How it was run: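 Biacore T200 SPR with antibody (supernatant or Protein A-purified) captured on Protein A amine-coupled to a CM5 chip; capture level recorded as response change at end of capture.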

Binder	TL1A Binding Level (Late) [1]	TL1A Binding Level (Early) [2]
B1	45 RU	50 RU
B2	73 RU	79 RU
B3	6 RU	26 RU
B4	110 RU	120 RU
B5	67 RU	72 RU
B6	78 RU	84 RU
B7	30 RU	62 RU
B8	51 RU	66 RU
B9	6 RU	14 RU
B10	86 RU	96 RU
B11	90 RU	100 RU
B12	103 RU	112 RU
B13	12 RU	43 RU
B14	5 RU	9 RU
B15	97 RU	104 RU
B16	107 RU	115 RU
B17	9 RU	36 RU
B18	36 RU	44 RU
